Experimental data reported in US20190276549A1.
Where two headings read alike, the source gives them in different places. Values belong to the substance of their own block, whether it stands above or below them.

Columns and labels:
[1] = target: C1q (human) (UniProt P02745); assay: cell-based or functional assay
[2] = target: C1q (human) (UniProt P02745); assay: cell-based or functional assay; remark: listed apart in the source
[3] = target: CD52 (human) (UniProt P31358); assay: QIFIKIT indirect immunofluorescence, flow cytometry, 10 µg/mL antibody, Ramos cells
[4] = target: CD52 (human) (UniProt P31358); assay: QIFIKIT indirect immunofluorescence, flow cytometry, 10 µg/mL antibody, REH cells
[5] = target: CD52 (human) (UniProt P31358); assay: QIFIKIT indirect immunofluorescence, flow cytometry, 10 µg/mL antibody, U-266B1 cells
[6] = target: CD52 (human) (UniProt P31358); assay: QIFIKIT indirect immunofluorescence, flow cytometry, 10 µg/mL antibody, Raji cells
[7] = target: CD52 (human) (UniProt P31358); assay: QIFIKIT indirect immunofluorescence, flow cytometry, 10 µg/mL antibody, Wien 133 cells
[8] = target: CD52 (human) (UniProt P31358); assay: QIFIKIT indirect immunofluorescence, flow cytometry, 10 µg/mL antibody, Daudi cells
[9] = target: CD52 (human) (UniProt P31358); assay: QIFIKIT indirect immunofluorescence, flow cytometry, 10 µg/mL antibody, U-698-M cells

UniProt P02745, sequence (P02745 23-245 limits assumed, chain 1 of 3): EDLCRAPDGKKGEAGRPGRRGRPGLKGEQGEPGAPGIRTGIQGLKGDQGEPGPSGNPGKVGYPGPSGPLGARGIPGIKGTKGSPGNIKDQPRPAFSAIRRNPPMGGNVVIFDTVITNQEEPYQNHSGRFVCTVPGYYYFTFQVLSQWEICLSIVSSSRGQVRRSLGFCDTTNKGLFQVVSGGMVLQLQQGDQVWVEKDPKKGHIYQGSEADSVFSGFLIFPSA
UniProt P02745, sequence (P02746 28-253 limits assumed, chain 2 of 3, further chain): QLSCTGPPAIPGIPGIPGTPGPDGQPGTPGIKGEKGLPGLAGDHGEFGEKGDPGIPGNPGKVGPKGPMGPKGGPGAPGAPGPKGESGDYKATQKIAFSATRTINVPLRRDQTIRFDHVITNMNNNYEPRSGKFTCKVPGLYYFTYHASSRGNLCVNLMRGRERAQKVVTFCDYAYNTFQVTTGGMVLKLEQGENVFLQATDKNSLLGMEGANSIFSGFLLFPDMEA
UniProt P02745, sequence (P02747 29-245 limits assumed, chain 3 of 3, further chain): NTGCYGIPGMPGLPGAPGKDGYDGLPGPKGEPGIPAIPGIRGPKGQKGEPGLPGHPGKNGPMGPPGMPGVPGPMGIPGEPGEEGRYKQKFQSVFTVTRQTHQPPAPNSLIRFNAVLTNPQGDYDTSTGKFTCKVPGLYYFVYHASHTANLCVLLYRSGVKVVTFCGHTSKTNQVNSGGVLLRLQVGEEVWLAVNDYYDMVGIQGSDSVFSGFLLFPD

CDC on Daudi cells, 20% NHS: EC50 [1]: 0.06 µg/mL
Substance: IgG1-005-AA-E430G (antibody)

CDC on Daudi cells, 20% NHS: EC50 [1]: 0.14 µg/mL
Substance: IgG1-005-AA-E345R (antibody)
CDC on Daudi cells, 20% NHS: maximal kill [1]: 74.3%

CDC on Wien 133 cells, 20% NHS: area under the dose response curve, IgG1-Campath = 100% [2]: 60%
Substance: IgG1-Campath variant E345R with the K322E mutation (antibody)

CDC on Daudi cells, 20% NHS: EC50 [1]: 0.01 µg/mL
Substance: IgG1-005-E345R (antibody)

CDC on Daudi cells, 20% NHS: EC50 [2]: 0.15 µg/mL
Substance: IgG1-005-D270R/E430G (antibody)

CDC on Wien 133 cells, 20% NHS: area under the dose response curve relative to IgG1-Campath [2]: 2.4 fold
CDC on Wien 133 cells, 20% NHS: area under the dose response curve, IgG1-Campath = 100% [2]: 240%
Substance: IgG1-Campath-E345K (antibody)

CDC on Daudi cells, 20% NHS: EC50 [1]: 0.01 µg/mL
CDC on Daudi cells, 20% NHS: EC50 [2]: 0.005 µg/mL
Substance: IgG1-005-E430G (antibody)

antibody binding capacity (Molecules/cell) (molecules/cell) [3]: 179000
antibody binding capacity (Molecules/cell) (molecules/cell) [4]: 135000
antibody binding capacity (Molecules/cell) (molecules/cell) [5]: 1.46e+06
antibody binding capacity (Molecules/cell) (molecules/cell) [6]: 85500
antibody binding capacity (Molecules/cell) (molecules/cell) [7]: 332000
antibody binding capacity (Molecules/cell) (molecules/cell) [8]: 7280
antibody binding capacity (Molecules/cell) (molecules/cell) [9]: 93700
Substance: IgG1-Campath (antibody)
